# Measured values as given in the Immune Epitope Database (IEDB).
# How the values were obtained:
# HLA-A*31:01 = experiment: IEDB peptide-MHC binding, purified MHC/competitive/fluorescence; filed as Kd, often an IC50 or EC50 that approximates it; ≥ and ≤ were set here for values at or beyond the usual limits of such assays
# HLA-A*11:01 [1] = experiment: IEDB peptide-MHC binding, purified MHC/direct/fluorescence; filed as Kd, often an IC50 or EC50 that approximates it; ≥ and ≤ were set here for values at or beyond the usual limits of such assays
# HLA-A*03:01 [2] = experiment: as above
# HLA-B*15:03 = experiment: IEDB peptide-MHC binding, purified MHC/competitive/radioactivity; filed as Kd, often an IC50 or EC50 that approximates it; ≥ and ≤ were set here for values at or beyond the usual limits of such assays
# HLA-B*53:01 = experiment: as above
# HLA-B*58:01 = experiment: as above
# HLA-B*35:01 = experiment: as above; conditions: source organism: Dengue virus 1 Singapore/S275/1990
# HLA-B*15:01 [3] = experiment: IEDB peptide-MHC binding, purified MHC/competitive/fluorescence; ≥ and ≤ were set here for values at or beyond the usual limits of such assays
# HLA-A*24:02 = experiment: as above
# HLA-A*30:01 = experiment: IEDB peptide-MHC binding, purified MHC/competitive/radioactivity; filed as Kd, often an IC50 or EC50 that approximates it; ≥ and ≤ were set here for values at or beyond the usual limits of such assays
# HLA-B*15:01 [4] = experiment: as above
# HLA-A*32:01 = experiment: as above
# HLA-B*08:01 = experiment: as above
# HLA-A*11:01 [5] = experiment: as above; conditions: source organism: Dengue virus 1 Singapore/S275/1990
# HLA-A*03:01 [6] = experiment: as above; conditions: source organism: Dengue virus 1 Singapore/S275/1990
# HLA-B*18:01 = experiment: IEDB peptide-MHC binding, purified MHC/competitive/fluorescence; filed as Kd, often an IC50 or EC50 that approximates it; ≥ and ≤ were set here for values at or beyond the usual limits of such assays; conditions: source organism: Orthohantavirus andesense
# HLA-B*46:01 = experiment: as above; conditions: source organism: Orthohantavirus andesense
# HLA-B*57:01 = experiment: as above; conditions: source organism: Orthohantavirus andesense
# HLA-A*69:01 = experiment: as above; conditions: source organism: Orthohantavirus andesense
# HLA-B*51:01 = experiment: as above; conditions: source organism: Orthohantavirus andesense
# HLA-B*27:03 = experiment: as above; conditions: source organism: Orthohantavirus andesense
# HLA-B*39:01 = experiment: as above; conditions: source organism: Orthohantavirus andesense
# HLA-A*02:01 [7] = experiment: as above; conditions: source organism: Orthohantavirus andesense
# HLA-A*68:02 = experiment: IEDB peptide-MHC binding, purified MHC/direct/fluorescence; filed as Kd, often an IC50 or EC50 that approximates it; ≥ and ≤ were set here for values at or beyond the usual limits of such assays; conditions: source organism: Orthohantavirus andesense
# HLA-A*26:01 = experiment: as above; conditions: source organism: Orthohantavirus andesense
# HLA-A*02:11 = experiment: as above; conditions: source organism: Orthohantavirus andesense
# HLA-A*02:03 = experiment: as above; conditions: source organism: Orthohantavirus andesense
# HLA-A*02:12 = experiment: as above; conditions: source organism: Orthohantavirus andesense
# HLA-A*02:19 = experiment: as above; conditions: source organism: Orthohantavirus andesense
# HLA-A*02:16 = experiment: as above; conditions: source organism: Orthohantavirus andesense
# HLA-A*11:01 [8] = experiment: IEDB peptide-MHC binding, purified MHC/competitive/fluorescence; ≥ and ≤ were set here for values at or beyond the usual limits of such assays; conditions: source organism: Zaire ebolavirus
# HLA-A*02:01 [9] = experiment: as above; conditions: source organism: Zaire ebolavirus
# [10] = source organism: Mammarenavirus lassaense
# [11] = source organism: Vaccinia virus WR
# [12] = source organism: Dengue virus 1 Singapore/S275/1990
# [13] = source organism: West Nile virus
# [14] = source organism: Vaccinia virus
# [15] = source organism: Vaccinia virus Copenhagen
# [16] = source organism: Dengue virus 1 Brazil/97-11/1997
# [17] = source organism: Escherichia coli O157:H7
# [18] = source organism: Zaire ebolavirus
sequence,measurement,setting,value
KLIDIALSK,Kd,HLA-A*31:01; source organism: Lassa virus Josiah,142 nM
same,Kd,HLA-A*11:01 [1]; [10],1.2 nM
same,Kd,HLA-A*03:01 [2]; [10],639 nM
FKAMWKYPF,Kd,HLA-B*15:03; [11],0.109 nM
MASSVLLWM,Kd,HLA-B*53:01; [12],0.61 nM
same,Kd,HLA-B*58:01; [12],0.3 nM
same,Kd,HLA-B*35:01,56.6 nM
GLYKSAPRR,Kd,HLA-A*31:01; [13],197 nM
same,Kd,HLA-A*11:01 [1]; [13],≥ 20000 nM
GTSGTEKEF,IC50,HLA-B*15:01 [3]; [14],≥ 401000 nM
same,IC50,HLA-A*24:02; [14],≥ 205000 nM
AVAKYFSPL,Kd,HLA-A*30:01; [11],8980 nM
same,Kd,HLA-B*15:01 [4]; [11],16 nM
same,Kd,HLA-A*32:01; [11],283 nM
same,Kd,HLA-B*15:03; [11],235 nM
same,Kd,HLA-B*08:01; [11],189 nM
ASSMVNGVVK,Kd,HLA-B*58:01; [12],2790 nM
same,Kd,HLA-A*11:01 [5],30.4 nM
same,Kd,HLA-A*03:01 [6],325 nM
IHFMREYWF,Kd,HLA-A*30:01; [15],44.9 nM
same,Kd,HLA-B*15:01 [4]; [15],6910 nM
same,Kd,HLA-A*32:01; [15],12400 nM
same,Kd,HLA-B*15:03; [15],222 nM
same,Kd,HLA-B*08:01; [15],8050 nM
LLIMGQLTW,Kd,HLA-B*53:01; [16],342 nM
same,Kd,HLA-B*58:01; [16],11.1 nM
ITLTNVVNI,Kd,HLA-A*30:01; [11],34.6 nM
same,Kd,HLA-B*15:01 [4]; [11],11.6 nM
same,Kd,HLA-A*32:01; [11],77.1 nM
same,Kd,HLA-B*15:03; [11],21.8 nM
same,Kd,HLA-B*08:01; [11],4490 nM
AVEDFLAFF,Kd,HLA-B*18:01,≥ 20000 nM
same,Kd,HLA-B*46:01,≥ 20000 nM
same,Kd,HLA-B*57:01,≥ 20000 nM
same,Kd,HLA-A*69:01,≥ 20000 nM
same,Kd,HLA-B*51:01,≥ 20000 nM
same,Kd,HLA-B*27:03,≥ 20000 nM
same,Kd,HLA-B*39:01,≥ 20000 nM
same,Kd,HLA-A*02:01 [7],≥ 20000 nM
same,Kd,HLA-A*68:02,≥ 20000 nM
same,Kd,HLA-A*26:01,1390 nM
same,Kd,HLA-A*02:11,≥ 20000 nM
same,Kd,HLA-A*03:01 [2]; source organism: Orthohantavirus andesense,≥ 20000 nM
same,Kd,HLA-A*02:03,≥ 20000 nM
same,Kd,HLA-A*02:12,≥ 20000 nM
same,Kd,HLA-A*02:19,≥ 20000 nM
same,Kd,HLA-A*02:16,≥ 20000 nM
ATREGKHGK,Kd,HLA-A*31:01; source organism: Shewanella baltica OS155,81.3 nM
same,Kd,HLA-A*11:01 [1]; [17],254 nM
same,Kd,HLA-A*03:01 [2]; [17],302 nM
SMNTIKQSF,Kd,HLA-A*32:01; [11],293 nM
same,Kd,HLA-B*15:03; [11],16.5 nM
same,Kd,HLA-B*08:01; [11],449 nM
IQTLNGKHF,Kd,HLA-B*15:03; [11],11.4 nM
LSFASLFLP,IC50,HLA-B*15:01 [3]; [18],≥ 97800 nM
same,IC50,HLA-A*11:01 [8],≥ 179000 nM
same,IC50,HLA-A*24:02; [18],11100 nM
same,IC50,HLA-A*02:01 [9],2670 nM
